{
  "source": "paper PMC9249324",
  "experiment_in_all_cases": "MST",
  "key": {"[1]": {"target": "MBP-Mpp83Aa1 modified with ABP5 at AA70-76 (Bacillus thuringiensis)"}, "[2]": {"target": "MBP-Mpp83Aa1 modified with ABP5 at AA224-230 (Bacillus thuringiensis)"}, "[3]": {"target": "MBP-Mpp83Aa1 (native) (Bacillus thuringiensis)"}, "[4]": {"target": "MBP-Mpp83Aa1 modified with ABP5 at AA172-178 (Bacillus thuringiensis)"}},
  "data": [
    {"substance": "Recombinant N. viridula aminopeptidase N (enzyme)", "values": [
      {"measurement": "Kd", "setting": "[1]", "result": 123, "unit": "nM"},
      {"measurement": "Kd", "setting": "[2]", "result": 187, "unit": "nM"},
      {"measurement": "Kd", "setting": "[3]", "result": 139, "unit": "nM"},
      {"measurement": "Kd", "setting": "[4]", "result": 4.98, "unit": "nM"}
    ]}
  ]
}
